Source: article PMC7804308

Legend:
[1] = biological target: BG505 SOSIP.664 gp140 trimer (HIV); assay: SPR
[2] = biological target: WT Malaysian banana lectin (Malay BanLec) (Musa acuminata ssp. malaccensis); assay: crystal structure; WT and F84T Malay BanLec each at 5 mg/mL in 10 mM HEPES pH 7.5, 150 mM NaCl; crystals grown at 20 °C from ammonium sulfate; dimers in the asymmetric unit
[3] = biological target: F84T Malay BanLec (Musa acuminata ssp. malaccensis); assay: as above

griffithsin (GRFT) (from UniProt P84801 1-121) (natural protein)
Kd [1]: 137 pM | koff [1]: 0.00074 s⁻¹ | kon [1]: 5.56e+06 M⁻¹ s⁻¹

WT Malaysian banana lectin (Malay BanLec) (natural protein)
Kd [1]: 122 pM | koff [1]: 0.00014 s⁻¹ | kon [1]: 1.33e+06 M⁻¹ s⁻¹ | stoichiometry N [2]: 2

F84T Malay BanLec (natural protein)
Kd [1]: 368 pM | koff [1]: 0.000266 s⁻¹ | kon [1]: 720000 M⁻¹ s⁻¹ | stoichiometry N [3]: 2
